These results are taken from PMC11099176.

Experiment [1] has as its target SPP1 tails carrying gp16.1 and lacking gp17 (bacteriophage SPP1) (UniProt O48449).
The target of experiment [2] is SPP1 tails lacking gp16.1 and gp17 (bacteriophage SPP1) (UniProt O48449).

B1: gp17 of bacteriophage SPP1, purified (natural protein)
chain: MTWKLASRALQKATVENLESYQPLMEMVNQVTESPGKDDPYPYVVIGDQSSTPFETKSSFGENITMDFHVWGGTTRAEAQDISSRVLEALTYKPLMFEGFTFVAKKLVLAQVITDTDGVTKHGIIKVRFTINNN
In turn, B1 yielded an infectious particles formed in vitro in SPP1gp17− extract (tails with endogenous gp16.1) against 0.003–20 µM purified gp17; gp17 concentration at the plateau in experiment [1] of 6 µM. Further, the infectious particles formed in vitro in SPP1gp16.1−-gp17− extract with 20 µM purified gp16.1 added, against purified gp17; gp17 concentration at the plateau in experiment [2] was 0.2 µM.
